Experimental data taken from patent publication US8357523B2, “Beta-glucosidase variant enzymes and related polynucleotides” (Codexis, Inc., priority 2009, dated 2013).

Assay: High throughput cellobiose assay: fold improvement in cellobiase activity of CelA variants over a control enzyme (Tables 2A-2D, 3, 5, 6, 7)
Format: biochemical
Details: assay of Example 7

B1: Variant No. 264 (protein)
chain: SAAIAQEGAAPAAMLHPEKWPRPATQRLIDPAVEKRVDALLKQLSVEEKVGQVIQGDIGTITPEDLRKYPLGSILAGGDSGPNGDDRAPPKEWLDLADAFYRVSLEKRPGHTPIPVLFGIDAVHGHGNIGSATIFPHNIALGMTRDPELLRRIGEVTAEEMAATGIDWTFAPALSVVRDDRWGRTYEGFSEDPEIVASYSAAIVEGVQGKYGSKDFMAPGRAVACAKHFLADGGTDQGRDQGDARISEDELIRIHNAGYPPAIDAGVLTVMASFSSWQGIKHHGHKQLLTDVLKGQMGFNGFIVGDWNAHDQVPGCTKFNCPTSLIAGLDMYMAADSWKQLYENTLAQVKDGTIPMARLDDAVRRILRVKVLAGLFEKPAPKDRPGLPGLETLGSPEHRAVGREAVRKSLVLLKNDKGTLPLSPKARVLVAGDGADNIGKQSGGWTISWQGTGNRNDEFPGATSILGGIRDAVADAGGSVEFDVAGQYKTKPDVAIVVFGEEPYAEFRGDVETLEYQPDQKQDLTLLKKLKDQGIPVVAVFLSGRPMWVNPELNASDAFVAAWLPGTEGGGVADVLFTDKAGKVQHDFAGKLSYSWPRTAAQTTVNRGDADYNPLFAYGYGLTYKDKSKVGTLPEESGVPAEARQN
  activity (e.g., thermoactivity) over the wildtype A. irakense β-glucosidase: improved activity
